Changes are numbered by the printed parent chain. Names and notes keep the numbering of the source.

The source of these data is patent US20240287169A1 (AULOS BIOSCIENCE, published 2024).

Assay [1] deals with T1, Human IL-2 (human, UniProt P60568 21-153).
T1 construct: Soluble analyte in the SPR experiments; also called hIL-2; recombinant human IL-2
Description: SPR Biacore T200, antibody captured, hIL-2 analyte. The text has this: (§1) The SPR analysis was done on Biacore […] (GE healthcare, USA) on CM5 chips (cat:br10005-30, GE healthcare, USA). The chip was crosslinked with primary capture Ab against human IgG (Cat: br-1008-39, GE healthcare, USA) or primary capture antibody against mouse IgG (Cat: BR-1008-38, GE healthcare, USA) to a target of 8000RU. After cross-linking of the primary Ab, the mouse and human tested antibodies were immobilized on the primary Ab to a target of approximately additional 500RU. […] At the end of each cycle the analyte and tested antibody were stripped from the chip using 3M MgCl₂ and new tested Ab was loaded on the chip as described above. When indicated, instead of stripping the antibodies, kinetics was determined by injecting series of analyte concentrations in one cycle by the Single-cycle kinetics method. Binding kinetics were determined by the 1:1 Binding model using the Biacore T200 evaluation software.
A general note: Surface plasmon resonance follows binding to a sensor surface in real time, without labels.

In assay [2] the target is T2, Mouse IL-2 (mouse, UniProt P04351 21-169).
T2 construct: Soluble analyte in SPR; also called mIL-2
T2 sequence (looked up): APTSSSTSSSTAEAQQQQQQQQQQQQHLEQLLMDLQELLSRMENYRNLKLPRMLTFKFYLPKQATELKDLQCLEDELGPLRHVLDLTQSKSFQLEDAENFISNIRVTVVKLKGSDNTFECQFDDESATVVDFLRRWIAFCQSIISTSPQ
Description: SPR Biacore T200, antibody captured, mIL-2 analyte.
Description: as §1

For assay [3], the target named is T2, Mouse IL-2. Description: SPR Biacore, antibody captured, mIL-2 analyte.
Description: as §1

Assay [4] deals with T1, Human IL-2. The assay is described as follows: SPR, multi-cycle, antibody captured, hIL-2 analyte.
Description: as §1

Assay [5] concerns the target T1, Human IL-2. The assay is described as follows: SPR, antibody captured on anti-human IgG CM5 chip, human IL-2 as analyte, single-cycle, 1:1 binding model.
Description: as §1

Assay [6] addresses T1, Human IL-2. The assay is described as follows: SPR, single-cycle, antibody captured, hIL-2 analyte.
Description: as §1

The target of assay [7] is T3, cynomolgus monkey IL-2 (cynomolgus monkey, UniProt Q29615 21-154).
T3 construct: also called cIL-2
T3 sequence (Q29615 21-154 limits assumed): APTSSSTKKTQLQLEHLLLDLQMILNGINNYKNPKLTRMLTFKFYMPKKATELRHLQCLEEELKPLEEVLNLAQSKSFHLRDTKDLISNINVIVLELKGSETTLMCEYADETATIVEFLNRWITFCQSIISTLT
The assay is described as follows: SPR, multi-cycle, antibody captured, cynomolgus IL-2 analyte.
Description: as §1

Assay [8] concerns the target T1, Human IL-2. The assay is described as follows: SPR, antibody captured on anti-human IgG CM5 chip, human IL-2 as analyte, multi-cycle, 1:1 binding model.
Description: as §1

T1 sequence (P60568 21-153 limits assumed): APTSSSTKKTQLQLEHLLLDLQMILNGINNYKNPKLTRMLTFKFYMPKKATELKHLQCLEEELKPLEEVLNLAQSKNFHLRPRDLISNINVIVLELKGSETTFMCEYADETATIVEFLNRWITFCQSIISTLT

B1: BDG17.023 IgG (antibody, V domains shown)
VH: EIQLQQSGPELRRPGSSVKLSCKASGYNITDYLIHWVRHRPEHGLEWIGWIDPEDGETRYAQKFQSKATLTADTSSNAAYMQLSSLTPEDTATYFCARQLDSTYIYPFAYWGQGTLVTVSS
VL: DIVMTQSPFSLAVSEGEMVTINCKSSQSLLRSGNQKNYLAWYQQKPGQSPKLLIYYASTGQSGVPDRFIGSGSGTDFTLTISDVQAEDLADYYCLQHYITPPTFGAGTKLELK
notes: Human chimeric IgG1 with rat Fv
Take B1: in assay [1], binding was characterised by a dissociation constant (Kd) of 0.0818 nM; the koff (in general, the first-order rate constant of dissociation) was 0.00107 s⁻¹; the kon (as a rule, the rate constant with which the complex forms) stood at 1.31e+07 M⁻¹ s⁻¹. Moreover, in assay [2], the affinity, expressed as Kd, was 2460 nM; the koff is 0.0979 s⁻¹; the kon is 39800 M⁻¹ s⁻¹.

B2: BDG JES6.1RMC (17.006) (antibody, V domains shown)
VH: B1 VH with Q99S
VL: B1 VL with R31S, T100S
notes: Rat Fv with a mouse IgG2a constant region
With B2, in assay [3], binding was put at a Kd of 0.13 nM, the koff is 6.3e-05 s⁻¹ and the kon was 480000 M⁻¹ s⁻¹.

B3: BDG17.066 (antibody, human IgG1, kappa, L234A L235A, V domains shown)
VH: QVQLVQSGAEVKKPGSSVKVSCKASGYSITDSLIHWVRQAPGQGLEWMGWIDPEDGEINYAQKFQGRVTLTADTSTSTAYMELSSLRSEDTAVYYCARSLDSYPIDPFAYWGQGTLVTVSS
VL: DIVMTQSPDSLAVSLGERATINCKSSQSLLRNGNQQNYLAWYQQKPGQPPKLLIYYASTGQSGVPDRFSGSGSGTDFTLTISSLQAEDVAVYYCQQHYVTPPTFGAGTKVEIKR
notes: Humanized IgG1 with the LALA mutation (L234A, L235A)
For B3, in assay [4], the Kd (in general, the free concentration of one partner at which half of the binding sites on the other are occupied at equilibrium, for simple one-to-one binding) was 0.0515 nM; the koff turned out to be 0.000785 s⁻¹; the kon came to 1.52e+07 M⁻¹ s⁻¹.

B4: BDG17.053 (antibody, V domains shown)
VH: B3 VH with S32Y, I58T, S102Y, Y103D, D106Y
VL: DIVMTQSPDSLAVSLGERATINCKSSQSLLRNGNQKNYLAWYQQKPGQPPKLLIYYASTGQSGVPDRFSGSGSGTDFTLTISSLQAEDVAVYYCQQHYITPPTFGAGTKVEIK
notes: Humanized IgG1
With B4, in assay [5], the kon came to 3.39e+07 M⁻¹ s⁻¹. Moreover, in assay [6], the Kd came out at 0.0643 nM, the koff amounted to 0.00254 s⁻¹ and the on-rate (kon) was determined as 3.96e+07 M⁻¹ s⁻¹.

B5: BDG17.067 (antibody, human IgG1, kappa, L234A L235A, V domains shown)
VH: B3 VH with S32Y, E57V, I58T, N59A, S102Y, Y103D, D106Y
VL: B3 VL with Q36K
notes: Humanized IgG1 with the LALA mutation; also called BDG17.0067
In assay [4], B5 gave a Kd of 0.011 nM, a koff of 0.000372 s⁻¹ and a kon of 3.37e+07 M⁻¹ s⁻¹. In assay [7], the affinity, expressed as Kd, was 0.014 nM; the koff stood at 0.000398 s⁻¹; the kon was 2.83e+07 M⁻¹ s⁻¹.

B6: BDG17.038 (antibody, V domains shown)
VH: B3 VH
VL: B4 VL with K36Q, I99V
notes: Humanized IgG1
Take B6: the off-rate constant (koff) in assay [8] was determined as 0.0002 s⁻¹. In assay [4], this molecule showed a Kd of 0.0202 nM, a koff of 0.0002 s⁻¹ and a kon of 1.41e+07 M⁻¹ s⁻¹.

B7: BDG17.054 (antibody, V domains shown)
VH: B3 VH with S32D, I58T, Y103T, P104W, D106Y
VL: B4 VL with N32R, Y38H, Y56D, Q95L, H97S
notes: Humanized IgG1 without the LALA mutation
In the case of B7, in assay [6], the equilibrium dissociation constant (Kd) worked out at 0.0127 nM, the koff amounted to 0.0007 s⁻¹ and the kon came out at 5.5e+07 M⁻¹ s⁻¹.

B8: BDG17.043 (antibody, V domains shown)
VH: B3 VH with S32Y, E57V, I58T, N59A, S102Y, Y103D, D106Y
VL: B4 VL with I99V
notes: Humanized IgG1; also called BDG017.043
In assay [8], B8 registered a Kd of 0.0478 nM, a koff of 0.000266 s⁻¹ and a kon of 3.39e+07 M⁻¹ s⁻¹. Further, in assay [4], the Kd is 0.0482 nM and the koff came to 0.000222 s⁻¹.
